Measured values reported in PMC6365017 (Journal of molecular biology, 2018).
Blank lines part the entries; values can stand above or below the molecule they belong to.

Key:
ZmALDH12 [1] = target: T1, ZmALDH12 (Zea mays, UniProt A0A2H4PMI3); experiment: microscale thermophoresis; assay type: binding
ZmALDH12 [2] = target: T1, ZmALDH12; experiment: microscale thermophoresis, label-free; assay type: binding
ZmALDH12 [3] = target: ZmALDH12 (Zea mays, UniProt A0A2H4PMI3, C330A); experiment: microscale thermophoresis; assay type: binding
[4] = substrate: NC(CCC=O)C(=O)O; experiment: NADH formation, spectrophotometry/fluorescence; assay type: biochemical, Physcomitrium patens; settings: 3.0 mM NAD+, 100 mM pyrophosphate pH 7.5, 30 °C
[5] = substrate: N[C@@H](CCCC=O)C(=O)O; experiment: NADH formation, spectrophotometry/fluorescence; assay type: biochemical, Physcomitrium patens; settings: 3.0 mM NAD+, 100 mM pyrophosphate pH 7.5, 30 °C
[6] = substrate: O=CCCCC(=O)O; experiment: NADH formation, spectrophotometry/fluorescence; assay type: biochemical, Physcomitrium patens; settings: 3.0 mM NAD+, 100 mM pyrophosphate pH 7.5, 30 °C
[7] = substrate: N[C@@H](CCCC=O)C(=O)O; experiment: NADH formation, spectrophotometry/fluorescence; assay type: biochemical, Zea mays; settings: 3.0 mM NAD+, 100 mM pyrophosphate pH 7.5, 30 °C
[8] = substrate: O=C[C@H](O)COP(=O)(O)O; experiment: NADH formation, spectrophotometry/fluorescence; assay type: biochemical, Zea mays; settings: 3.0 mM NAD+, 100 mM pyrophosphate pH 7.5, 30 °C
[9] = substrate: NC(CCC=O)C(=O)O; experiment: NADH formation, spectrophotometry/fluorescence; assay type: biochemical, Zea mays; settings: 3.0 mM NAD+, 100 mM pyrophosphate pH 7.5, 30 °C

Kd (ZmALDH12 [1]): 186 ± 25 µM
Molecule: NC(=O)c1ccc[n+]([C@@H]2O[C@H](COP(=O)(O)OP(=O)(O)OC[C@H]3O[C@@H](n4cnc5c(N)ncnc54)[C@H](O)[C@@H]3O)[C@@H](O)[C@H]2O)c1 [NAD^+]

Kd (ZmALDH12 [2]): 3100 ± 300 µM
Molecule: N[C@@H](CCC(=O)O)C(=O)O [glutamate]

Kd (ZmALDH12 [1]): 166 ± 14 µM
Kd (ZmALDH12 [3]): 315 ± 48 µM
Molecule: NC(CCC=O)C(=O)O (racemic) [GSAL]

Kd (ZmALDH12 [1]): 34 ± 11 µM
Molecule: O=CCCCC(=O)O [GRSAL]

The remaining lines, values behind:

B1: PpALDH12 (Physcomitrium patens) (protein)
chain: SSTLLSDHRPQSSLSFASCDADKLSEAHQYQMHNLVQGKWEQTSKSIELLDPLNGEKFISVPDTSIDEISPFVQSLRACSKSGLHNPLKNPERYLLYGDIMAKAAHLLKQPQVETFFARLIQRVAPKSFAQAVGEVTVTQKFLENFSGDQVRFLARSFVVPGNYQGQQSNGMRWPYGPVAIITPFNFPLEIPALQALGALFMGNKPILKVDSKVSIVMEQFIRLLHKCGMPPTDMDFINSDGPVMNKLLLEAEPKTTLFTGSSKVAEKLALDLKGRVKLEDAGFDWKILGPDVQNEDYVAWVCDQDAYACSGQKCSAQSILFMHENWANQNFLERLKKLASKRKLEDLTVGPVLTVTTERMLDHVKNLLAIPGARVEFGGKPLTNHTIPDVYGALEPTAVFVPLKEILRNEENFALATTEIFGPFQILTEYKHEDLPLVFEACERMHAHLTAAVVSNDVHFLQEVLSNTVNGTTYAGIRARTTGAPQNHWFGPAGDPRGAGIGTPEAIKLVWSCHREIIQDVGPIPNGWSTPQCT
Km [4]: 228 ± 40 µM
kcat [4]: 0.44 ± 0.05 s⁻¹
kcat/Km [4]: 1900 ± 600 M⁻¹ s⁻¹
Km [5]: 211 ± 13 µM
kcat [5]: 0.005 ± 0.001 s⁻¹
kcat/Km [5]: 26 ± 2 M⁻¹ s⁻¹
Km [6]: 82 ± 6 µM
kcat [6]: 0.3 ± 0.02 s⁻¹
kcat/Km [6]: 3700 ± 600 M⁻¹ s⁻¹

B2: ZmALDH12 (Zea mays) (protein)
chain: APFACVSRWLHTPSFATVSPQEVSGSSPAEVQNFVQGSWTASANWNWIVDPLNGDKFIKVAEVQGTEIKSFMESLSKCPKHGLHNPLKAPERYLMYGDISAKAAHMLGQPTVLDFFAKLIQRVSPKSYQQALAEVQVSQKFLENFCGDQVRFLARSFAVPGNHLGQRSNGYRWPYGPVAIITPFNFPLEIPLLQLMGALYMGNKPVLKVDSKVSIVMEQMIRLLHDCGLPAEDMDFINSDGAVMNKLLLEANPKMTLFTGSSRVAEKLAADLKGRVKLEDAGFDWKILGPDVQEVDYVAWVCDQDAYACSGQKCSAQSVLFMHKNWSSSGLLEKMKKLSERRKLEDLTIGPVLTVTTEAMIEHMNNLLKIRGSKVLFGGEPLANHSIPKIYGAMKPTAVFVPLEEILKSGNFELVTKEIFGPFQVVTEYSEDQLELVLEACERMNAHLTAAIVSNDPLFLQDVLGRSVNGTTYAGIRARTTGAPQNHWFGPAGDPRGAGIGTPEAIKLVWSCHREIIYDVGPVPESWALPSAT
Km [7]: 173 ± 12 µM
kcat [7]: 0.04 ± 0.02 s⁻¹
kcat/Km [7]: 200 ± 20 M⁻¹ s⁻¹
Km [8]: 1860 ± 99 µM
kcat [8]: 0.4 ± 0.1 s⁻¹
kcat/Km [8]: 210 ± 20 M⁻¹ s⁻¹

B3: ZmALDH12 (Zea mays; K329A) (protein)
chain: APFACVSRWLHTPSFATVSPQEVSGSSPAEVQNFVQGSWTASANWNWIVDPLNGDKFIKVAEVQGTEIKSFMESLSKCPKHGLHNPLKAPERYLMYGDISAKAAHMLGQPTVLDFFAKLIQRVSPKSYQQALAEVQVSQKFLENFCGDQVRFLARSFAVPGNHLGQRSNGYRWPYGPVAIITPFNFPLEIPLLQLMGALYMGNKPVLKVDSKVSIVMEQMIRLLHDCGLPAEDMDFINSDGAVMNKLLLEANPKMTLFTGSSRVAEKLAADLKGRVKLEDAGFDWKILGPDVQEVDYVAWVCDQDAYACSGQACSAQSVLFMHKNWSSSGLLEKMKKLSERRKLEDLTIGPVLTVTTEAMIEHMNNLLKIRGSKVLFGGEPLANHSIPKIYGAMKPTAVFVPLEEILKSGNFELVTKEIFGPFQVVTEYSEDQLELVLEACERMNAHLTAAIVSNDPLFLQDVLGRSVNGTTYAGIRARTTGAPQNHWFGPAGDPRGAGIGTPEAIKLVWSCHREIIYDVGPVPESWALPSAT
Km [9]: 958 ± 47 µM
kcat [9]: 0.26 ± 0.01 s⁻¹
